Experimental data as given in PMC2481239 (Nature structural & molecular biology, 2008).

How the values were obtained:
Rpn1 [1] = target: T1, Rpn1 (S. cerevisiae, UniProt P38764 1-993); assay: atomic force microscopy
T1 sequence: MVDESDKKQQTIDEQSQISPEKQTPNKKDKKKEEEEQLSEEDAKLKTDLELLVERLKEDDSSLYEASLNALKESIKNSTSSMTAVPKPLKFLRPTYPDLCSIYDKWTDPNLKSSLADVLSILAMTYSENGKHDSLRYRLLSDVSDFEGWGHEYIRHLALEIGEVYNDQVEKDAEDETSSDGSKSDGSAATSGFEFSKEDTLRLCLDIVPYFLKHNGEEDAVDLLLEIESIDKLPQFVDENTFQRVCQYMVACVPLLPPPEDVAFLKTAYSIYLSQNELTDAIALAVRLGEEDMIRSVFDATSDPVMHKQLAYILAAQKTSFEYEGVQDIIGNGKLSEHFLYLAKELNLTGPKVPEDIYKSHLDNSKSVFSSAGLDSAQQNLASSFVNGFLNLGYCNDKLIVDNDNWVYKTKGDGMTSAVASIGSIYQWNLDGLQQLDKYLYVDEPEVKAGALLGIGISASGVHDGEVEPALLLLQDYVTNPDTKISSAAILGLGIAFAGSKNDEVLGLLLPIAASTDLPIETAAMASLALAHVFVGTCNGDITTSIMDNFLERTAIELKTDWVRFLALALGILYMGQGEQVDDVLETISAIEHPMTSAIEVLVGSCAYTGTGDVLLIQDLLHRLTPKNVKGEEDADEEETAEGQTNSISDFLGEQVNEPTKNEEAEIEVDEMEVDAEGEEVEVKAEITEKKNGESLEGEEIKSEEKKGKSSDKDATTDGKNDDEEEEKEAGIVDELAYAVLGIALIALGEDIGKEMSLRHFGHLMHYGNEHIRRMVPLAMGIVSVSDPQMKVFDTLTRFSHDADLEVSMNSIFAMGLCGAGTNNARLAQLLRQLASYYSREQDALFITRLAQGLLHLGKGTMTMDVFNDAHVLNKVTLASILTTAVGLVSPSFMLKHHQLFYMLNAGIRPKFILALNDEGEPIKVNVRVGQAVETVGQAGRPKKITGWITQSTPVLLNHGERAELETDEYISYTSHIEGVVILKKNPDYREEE

Rpn1-Rpn2 unit = Rpn1-Rpn2 unit (S. cerevisiae, UniProt P38764 1-993; P32565 1-945); assay: atomic force microscopy
Rpn1 [2] = target: T1, Rpn1; assay: cross-linking

B1: Rad23 (natural protein)
chain: MVSLTFKNFKKEKVPLDLEPSNTILETKTKLAQSISCEESQIKLIYSGKVLQDSKTVSECGLKDGDQVVFMVSQKKSTKTKVTEPPIAPESATTPGRENSTEASPSTDASAAPAATAPEGSQPQEEQTATTERTESASTPGFVVGTERNETIERIMEMGYQREEVERALRAAFNNPDRAVEYLLMGIPENLRQPEPQQQTAAAAEQPSTAATTAEQPAEDDLFAQAAQGGNASSGALGTTGGATDAAQGGPPGSIGLTVEDLLSLRQVVSGNPEALAPLLENISARYPQLREHIMANPEVFVSMLLEAVGDNMQDVMEGADDMVEGEDIEVTGEAAAAGLGQGEGEGSFQVDYTPEDDQAISRLCELGFERDLVIQVYFACDKNEEAAANILFSDHAD
Question: Which “stoichiometry N” value (Rpn1 [1]) does the source give for B1 here?
Answer: 1

Question: What about the “stoichiometry N” value (Rpn1-Rpn2 unit) of the same binder?
Answer: 1

B2: Rpn2 (natural protein)
chain: MSLTTAAPLLALLRENQDSVKTYALESINNVVDQLWSEISNELPDIEALYDDDTFSDREMAALIASKVYYNLGEYESAVKYALAAKDRFDIDEKSQFVETIVSKSIEMYVQEASKQYTKDEQFYTKDIIDPKLTSIFERMIEKCLKASELKLALGIALEGYRLDIIESALKSKLDQDSTSENVKIINYLLTLAITTVTNSKFRSSILRKSFDFLMNMPNCDYLTLNKVVVNLNDAGLALQLFKKLKEENDEGLSAQIAFDLVSSASQQLLEILVTELTAQGYDPALLNILSGLPTCDYYNTFLLNNKNIDIGLLNKSKSSLDGKFSLFHTAVSVANGFMHAGTTDNSFIKANLPWLGKAQNWAKFTATASLGVIHKGNLLEGKKVMAPYLPGSRASSRFIKGGSLYGLGLIYAGFGRDTTDYLKNIIVENSGTSGDEDVDVLLHGASLGIGLAAMGSANIEVYEALKEVLYNDSATSGEAAALGMGLCMLGTGKPEAIHDMFTYSQETQHGNITRGLAVGLALINYGRQELADDLITKMLASDESLLRYGGAFTIALAYAGTGNNSAVKRLLHVAVSDSNDDVRRAAVIALGFVLLRDYTTVPRIVQLLSKSHNAHVRCGTAFALGIACAGKGLQSAIDVLDPLTKDPVDFVRQAAMIALSMILIQQTEKLNPQVADINKNFLSVITNKHQEGLAKFGACVAQGIMNAGGRNVTIQLENADTGTLDTKSVVGLVMFSQFWYWFPLAHFLSLSFTPTTVIGIRGSDQAIPKFQMNCYAKEDAFSYPRMYEEASGKEVEKVATAVLSTTARAKARAKKTKKEKGPNEEEKKKEHEEKEKERETNKKGIKETKENDEEFYKNKYSSKPYKVDNMTRILPQQSRYISFIKDDRFVPVRKFKGNNGVVVLRDREPKEPVALIETVRQMKDVNAPLPTPFKVDDNVDFPSA
Question: Does B2 bind (Rpn1 [2])?
Answer: binds
